This is an account of results in PMC7937890.

The test system of this data set is T1, RsmE-His6 (Pseudomonas putida KT2440), ORF:50140dbc.
T1 sequence: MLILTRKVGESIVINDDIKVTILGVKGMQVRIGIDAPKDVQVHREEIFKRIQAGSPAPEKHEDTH
Nature of the data set: EMSA. The conditions noted are these: 1x binding buffer (composition only cited), RNA 5 or 10 nM, 30 min at 30 C, with or without 100-fold unlabeled competitor RNA; 6% non-denaturing PAGE in TBE at ….

Regarding “GGGUUCUAAGAUUGGAUCCACUGUUAAUCUUUACCACAUGGACGUUGCGCAGGAAGCGCAAAGGACAGAUCAAGGACGACGACGAAGGACCACCUGCCAGGAUGGCGGGGCGAUACGGAUGUCACAGGGAAACAGUCUGGAAAACCCCGCUUCGGCGGGGGGGGGUUUUUUUUGCGGCCGCUUUU [rsmY full-length RNA]”, the binding result is listed as “binds”.
